Measurements as given in article PMC10794523.

Target: T1, Sif (Lmo0946-His6) (Listeria monocytogenes EGD-e) (UniProt Q8Y8F8)
T1 sequence: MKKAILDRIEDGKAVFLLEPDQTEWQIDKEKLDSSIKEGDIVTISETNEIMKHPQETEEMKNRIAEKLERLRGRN
Assay: EMSA
Conditions: EMSA 37 C 30 min, 4.2% native PAGE, ethidium bromide stain; binding buffer not stated (protein dialyzed in 20 mM Tris-HCl pH 8.0, 150 mM NaCl, 1% glycerol)

AGCGAATTAGCTCAAGTCCTCCATACCCCGTCGCGCCAATGATTGAAACTTTCATCCTAACCCCTCCCCGTTAATTATTAAATGATACTTTTCATTATAATGATGTATATTTATAATGTCAAATGGTTTTTTATTAATATTTAAAACTATTTTATGCATTTTAAGTTATTTATTATGTATATAATATACAAAAAACCGTTTATCCTTTTCTAGGATAAACGGTTAATCTTAAAATAAATCAGCGAACTCATCTTTCACTTGCGCAGTTTCCGCTAC (double strand) [argC promoter region]
binding: no binding

GCGGTATGTTTCCACTGTCGCTGTAATACCTGATTGTTCTTTAGAAAGGTCGCGTAGTCGCTTTGGATCAGATACTACATCTGGATCACTTAGTAGTTCATTTAGTTCATCATAACGGTCTTCCACCGCCTGTAATCGATCATACATTGTATTCCAACACCTCTTTAACTTATTTTATTGGTGGATTGGCATGACATTTGCGACACACAGGGTAATAGTGGTCATTTCCGCCAATCATAATTTGTTCACCTGTATAAACTGGTTTTCCTTTGTCATCAACGCGCAG (double strand) [prfA promoter region]
binding: no binding
